Experimental findings from patent publication US7838294B2, “Inhibitors of the JNK signal transduction pathway and methods of use” (University of Massachusetts, priority 1997, dated 2010) are described below.

For one test, the target named is p38 (Homo sapiens, UniProt Q16539). The experiment in a line: Co-immunoprecipitation of JIP-1 with p38 (specificity control). Type of test: binding. Conditions: control experiment.
The next test addresses T1, JNK1 (Homo sapiens, UniProt P45983).
T1 construct: expressed in transfected cells
The test can be described thus: Co-immunoprecipitation of JIP-1 with JNK1 in transfected COS-1 cells. The class given is binding. The protocol:
To test whether JIP-1 and JNK interact in vivo, co-immunoprecipitation analysis was performed. COS-1 cells were mock-transfected or transfected with JIP-1 and JNK1 expression vectors. Constructs expressing epitope (HA) tagged JNK1 have been described previously. Dérijard et al., supra; Sluss et al., supra; Gupta et al., supra. Mammalian JIP-1 expression vectors were constructed by subcloning the JIP-1 cDNA into the XbaI and HindIII sites of pCMV5 and the HindIII and EcoRI sites of pcDNA3 (Invitrogen Inc.). DNA encoding the Flag epitope, -Asp-Tyr-Lys-Asp-Asp-Asp-Asp-Lys- (SEQ ID NO:14) (Immunex Corp.), was inserted into JIP-1 cDNA between the DNA encoding the first two codons of JIP-1 using insertional overlapping polymerase chain reaction (PCR). Ho et al., Gene, 77:51 (1989). Bacterial JIP-1 expression vectors were constructed by subcloning PCR fragments of the JIP-1 cDNA into the EcoRI and XbaI sites of pGEX-3× (Pharmacia LKB Biotechnology Inc.). GST fusion proteins were purified by affinity chromatography on GSH-agarose as described previously. Smith et al., Gene, 67:31 (1988). […]
For the co-immunoprecipitation experiments, transfected or mock-transfected cells were irradiated with or without UV-C (40 J/m^2) and incubated for one hour. […] Immune complexes were detected with a second antibody coupled to horseradish peroxidase and enhanced chemiluminescence (Amersham International PLC).

For the next test, the target named is ERK2 (Homo sapiens, UniProt P28482). The experiment in a line: Co-immunoprecipitation of JIP-1 with ERK2 (specificity control). The class given is binding. The settings on record: control experiment.
The target of the next test is T2, p38 MAP kinase (Homo sapiens, UniProt Q16539).
T2 construct: expressed in transfected cells
The test can be described thus: GST-fusion pull-down from cell lysates, Flag immunoblot: p38 MAP kinase. Type of test: binding. The settings on record: control experiment, Flag-p38 lysate. The protocol: To test whether JIP-1 binding to JNK is also isoform-dependent, a binding assay was utilized. Cell lysates (1 ml in TLB) containing JNK1, JNK2, or p38 MAP kinase, each tagged with the Flag epitope, were incubated with 5 μg GST-fusion proteins pre-bound to 10 μl glutathione-Sepharose. The GST fusion proteins used contain residues 127-202 (SEQ ID NO:15), 203-281 (SEQ ID NO:16), 164-240 (SEQ ID NO:17), or 127-281 (SEQ ID NO:4) of JIP-1. The GST-ATF2 fusion protein contains residues 1-109 of ATF2, and the GST-Jun fusion protein contains residues 1-79 of c-Jun. After incubation for one hour at 4° C. and three washes with TLB, bound proteins were detected by protein immunoblot analysis with the M2 monoclonal antibody, which is specific for the Flag epitope. Dérijard, et al., supra; Sluss et al., supra; Gupta et al., supra. […] This finding is consistent with the results of previous studies. In contrast, when GST-JIP-1 fusion proteins containing residues 127-202 or 127-281 of JIP-1 were tested in the assay, these proteins bound both JNK1 and JNK2.
On the technique in general: In western blotting, separated proteins are transferred to a membrane and probed.

A further test relates to JNK. The experiment in a line: Immune complex protein kinase assay: JNK, substrate GST-Jun. Conditions: in vitro, 3 μg GST-Jun, 30 minutes at 30° C. Type of test: biochemical, Chinese hamster. As for the experimental part:
To test whether JIP-1 competes with Jun and ATF2 for interaction with JNK, the effect of JIP-1 on transcription factor-mediated phosphorylation of exogenous substrates was analyzed using an in vitro protein kinase assay. In these experiments, Chinese hamster ovary (CHO) cells were serum-starved for one hour. In some experiments, the cells were treated with 10 ng/ml mouse interleukin 1 or 100 nM phorbol myristic acetate. JNK, p38, and ERK protein kinase activity was measured in an immune complex kinase assay using 3 μg of the substrates GST-Jun, GST-ATF2, and myelin basic protein (MBP), respectively. Protein kinase assays were performed using 40 μl 20 mM Hepes (pH 7.4), 20 mM MgCl2, 20 mM β-glycerophosphate, 2 mM dithiothreitol, 0.1 mM sodium orthovanadate, 50 μM [γ-^32P]ATP (10 Ci/mmol). After incubation for 30 minutes at 30° C., phosphorylation of substrates was analyzed by polyacrylamide gel electrophoresis and autoradiography.

T1 sequence (P45983 1-384 isoform P45983-2): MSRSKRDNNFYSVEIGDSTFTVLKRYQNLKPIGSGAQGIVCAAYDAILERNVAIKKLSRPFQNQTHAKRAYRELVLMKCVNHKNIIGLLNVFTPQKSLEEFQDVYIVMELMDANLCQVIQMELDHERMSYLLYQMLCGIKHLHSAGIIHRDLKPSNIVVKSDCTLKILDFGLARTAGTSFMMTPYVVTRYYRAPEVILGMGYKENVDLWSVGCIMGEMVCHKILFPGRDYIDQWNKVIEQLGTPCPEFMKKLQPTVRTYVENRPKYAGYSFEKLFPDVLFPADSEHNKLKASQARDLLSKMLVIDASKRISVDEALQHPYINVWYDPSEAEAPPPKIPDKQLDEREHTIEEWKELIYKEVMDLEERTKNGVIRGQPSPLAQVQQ
p38, sequence (Q16539 whole entry): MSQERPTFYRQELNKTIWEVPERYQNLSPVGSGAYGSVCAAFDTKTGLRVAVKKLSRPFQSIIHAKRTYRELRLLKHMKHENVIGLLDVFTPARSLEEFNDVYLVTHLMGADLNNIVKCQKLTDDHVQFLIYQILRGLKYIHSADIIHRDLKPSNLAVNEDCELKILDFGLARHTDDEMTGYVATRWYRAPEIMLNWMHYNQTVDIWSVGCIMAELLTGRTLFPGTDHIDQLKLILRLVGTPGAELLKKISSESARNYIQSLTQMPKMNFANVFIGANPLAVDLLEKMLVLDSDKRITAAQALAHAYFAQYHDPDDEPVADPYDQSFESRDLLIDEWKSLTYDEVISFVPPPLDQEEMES
T2 sequence (Q16539 whole entry): as above
ERK2, sequence (P28482 whole entry, species assumed): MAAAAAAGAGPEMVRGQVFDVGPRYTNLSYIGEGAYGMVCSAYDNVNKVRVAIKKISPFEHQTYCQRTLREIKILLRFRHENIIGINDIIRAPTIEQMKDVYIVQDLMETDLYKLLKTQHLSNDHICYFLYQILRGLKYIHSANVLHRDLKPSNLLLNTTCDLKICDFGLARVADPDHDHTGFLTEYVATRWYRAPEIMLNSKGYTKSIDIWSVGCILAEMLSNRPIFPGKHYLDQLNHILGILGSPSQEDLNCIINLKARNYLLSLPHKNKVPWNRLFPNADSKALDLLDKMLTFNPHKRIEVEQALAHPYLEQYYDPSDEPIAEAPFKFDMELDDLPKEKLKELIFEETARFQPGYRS

B1: JIP-1: 660 amino acid murine cytoplasmic protein that specifically binds JNK (protein)
chain: MAERESGLGGGAASPPAASPFLGLHIASPPNFRLTHDISLEEFEDEDLSEITDECGISLQCKDTLSLRPPRAGLLSAGSSGSAGSRLQAEMLQMDLIDAAGDTPGAEDDEEEEDDELAAQRPGVGPPKAESNQDPAPRSQGQGPGTGSGDTYRPKRPTTLNLFPQVPRSQDTLNNNSLGKKHSWQDRVSRSSSPLKTGEQTPPHEHICLSDELPPQGSPVPTQDRGTSTDSPCRRSAATQMAPPSGPPATAPGGRGHSHRDRIHYQADVRLEATEEIYLTPVQRPPDPAEPTSTFMPPTESRMSVSSDPDPAAYSVTAGRPHPSISEEDEGFDCLSSPERAEPPGGGWRGSLGEPPPPPRASLSSDTSALSYDSVKYTLVVDEHAQLELVSLRPCFGDYSDESDSATVYDNCASASSPYESAIGEEYEEAPQPRPPTCLSEDSTPDEPDVHFSKKFLNVFMSGRSRSSSAESFGLFSCVINGEEHEQTHRAIFRFVPRHEDELELEVDDPLLVELQAEDYWYEAYNMRTGARGVFPAYYAIEVTKEPEHMAALAKNSCVLEISVRGVKIGVKADDALEAKGNKCSHFFQLKNISFCGYHPKNNKYFGFITKHPADHRFACHVFVSEDSTKALAESVGRAFQQFYKQFVEYTCPTEDIYLE
Turning to B1, the “co-immunoprecipitation of JIP-1 with p38” value in the test with p38 is “did not co-immunoprecipitate”. In addition, the “co-immunoprecipitation of JIP-1 with JNK1” value with JNK1 (COS-1 cells transfected with Flag-JIP-1 and HA-JNK1, protein immunoblot) is on record as “detected in JNK1 immunoprecipitates”. Besides, in the test with JNK1 (UV-C 40 J/m2, one hour, co-immunoprecipitation), the “change in amount of JNK/JIP-1 complex on exposure to UV radiation” value is “no significant change”. Also, the “co-immunoprecipitation of JIP-1 with ERK2” value in the test with ERK2 was “did not co-immunoprecipitate”. In the test with p38 MAP kinase, the “binding to p38 MAP kinase” value is “did not bind”. Besides, the “phosphorylation of c-Jun by JNK” value in the test with JNK is “markedly inhibited”.
